From US20140371142A1 (Johns Hopkins, published 2014)

B1: FLAG epitope-tagged mouse myonectin (CTRP15) (ligand)
chain: LGVPESAEPVGTHARPQPPGAELPAPPANSPPEPTIAHAHSVDPRDAWMLFVKQSDKGINSKRRSKARRLKLGLPGPPGPPGPQGPPGPFIPSEVLLKEFQLLLKGAVRQRESHLEHCTRDLTTPASGSPSRVPAAQELDSQDPGALLALLAATLAQGPRAPRVEAAFHCRLRRDVQVDRRALHELGIYYLPEVEGAFHRGPGLNLTSGQYTAPVAGFYALAATLHVALTEQPRKGPTRPRDRLRLLICIQSLCQHNASLETVMGLENSSELFTISVNGVLYLQAGHYTSVFLDNASGSSLTVRSGSHFSAILLGLDYKDDDDK
modifications: N-linked glycans (sites not given)
notes: Secreted into the supernatant of transfected HEK 293T cells; Disulfide-linked dimer on a non-reducing gel and multimeric on a native gel; also called FLAG-tagged myonectin; recombinant myonectin
B2: HA epitope-tagged CTRP5 (other, mouse)
chain: SPPLDDNKIPSLCPGQPGLPGTPGHHGSQGLPGRDGRDGRDGAPGAPGEKGEGGRPGLPGPRGEPGPRGEAGPMGAIGPAGECSVPPRSAFSAKRSESRVPPPADTPLPFDRVLLNEQGHYDPTTGKFTCQVPGVYYFAVHATVYRASLQFDLVKNGQSIASFFQYFGGWPKPASLSGGAMVRLEPEDQVWVQVGVGDYIGIYASIKTDSTFSGFLVYSDWHSSPVFAYPYDVPDYA
notes: Co-expressed with FLAG-tagged myonectin in HEK 293T cells; supernatants were used for immunoprecipitation
B3: HA epitope-tagged CTRP10 (other, mouse)
chain: HYEMLGTCRMICDPYSVAPAGGPAGAKAPPPGPSTAALEVMQDLSANPPPPFIQGPKGDPGRPGKPGPRGPPGEPGPPGPRGPPGEKGDSGRPGLPGLQLTTSAAGGVGVVSGGTGGGGDTEGEVTSALSAAFSGPKIAFYVGLKSPHEGYEVLKFDDVVTNLGNHYDPTTGKFSCQVRGIYFFTYHILMRGGDGTSMWADLCKNGQVRASAIAQDADQNYDYASNSVVLHLDSGDEVYVKLDGGKAHGGNNNKYSTFSGFLLYPDYPYDVPDYA
notes: as for B2
B4: HA epitope-tagged CTRP2 (other, mouse)
chain: DPMLGAFARRDFQKGGPQLVCSLPGPQGPPGPPGAPGSSGVVGRMGFPGKDGQDGQDGDRGDSGEEGPPGRTGNRGKQGPKGKAGAIGRAGPRGPKGVSGTPGKHGTPGKKGPKGKKGEPGLPGPCSCGSSRAKSAFSVAVTKSYPRERLPIKFDKILMNEGGHYNASSGKFVCSVPGIYYFTYDITLANKHLAIGLVHNGQYRIRTFDANTGNHDVASGSTILALKEGDEVWLQIFYSEQNGLFYDPYWTDSLFTGFLIYADQGDPNEVYPYDVPDYA
notes: as for B2

Key:
[1] = molecular target: the molecule itself; assay: native gel immunoblot, FIG. 4 legend (self-association)
Procedure: Native gel electrophoresis. Non-denaturing, non-reducing gel electrophoresis was carried out as previously described (PLoS One, 5: e12765).
Myonectin (CTRP15) protein forms disulfide-linked oligomers and heteromeric complexes with other CTRPs. Consistent with the presence of a signal peptide, myonectin was robustly secreted into the conditioned medium when expressed in vitro (FIG. 4A). Secreted myonectin contains N-linked glycans; treatment with PNGase F (an N-glycosidase) reduced the apparent molecular weight of myonectin on immunoblot (FIG. 4B), confirming that one or more of the conserved Asn residues are glycosylated. In the absence of reducing agent (β-ME), myonectin migrated as a dimer on immunoblot (FIG. 4C), indicating the presence of intermolecular disulfide bond. […] Formation of oligomers is a biochemical feature shared by all CTRPs and proteins of the C1q family. […] Similarly, when co-expressed in mammalian cells (HEK 293T), myonectin formed heteromeric complexes with CTRP2 and CTRP12, and, to a lesser extent, with CTRP5 and CTRP10 (FIG. 4E).

[2] = molecular target: B1; assay: co-expression in HEK 293T cells, immunoprecipitation then immunoblot of supernatants (FLAG / HA tags)

Binder	binding result [1]	binding result [2]
B1	binds	
B2		binds
B3		binds
B4		binds
